First the molecules themselves.
B1: M81 CHI (antibody, human IgG1, kappa, V domains shown)
VH: EFQLQQSGPELVKPGASVKISCKASGYSFTDHNMNWVKQSNGKSLEWIGVMNPKFGTINYNQKFKDKATLTVDQSSSTAYMQLNSLTSEDSAVYYCVRDDYPNYFDYWGQGTTLTVSS
VL: QIVLTQSPAIMSASPGEKVTISCSASSSVNYMYWYQQKPGSSPKSWIYRTSNLASGVSARFSGSGSGTSYSLTISSMEAEDAATYYCQQYHDYPPTFGGGTKLEIKR
notes: chimeric, murine variable regions on human IgG1/kappa; also called M81CH1
B2: M146 CHI (antibody, human IgG1, kappa, V domains shown)
VH: EFQLQQSGPELVKPGASVKISCKASGYSFTDYNMNWVKQSNGKSLEWIGLINPKYGTTNYNQKFKGKATLTVDQSSSTAYMQLNSLTSEDSAVYYCAIDDYPAWFAYWGQGTLVTVSA
VL: QIVLTQSPAIMSASPGEKVTISCSASSSLNYMYWYQQKPGSSPKSWIYRTSNLASGVPARFSGSGSGTSYSLTISSMEAEDAATYYCQQYHSYPPTFGAGTKLELKR
notes: chimeric
B3: M64 CHI (antibody, human IgG1, kappa, V domains shown)
VH: EVQLVESGGGLVKPGGSLKLSCAASGFTFSDYGMHWVRQAPEKGLEWVAYISSGSSTIYYADTVKGRFTISRDNAKNTLFLQMTSLRSEDTAMYYCARTRVYFYGSYWYFDVWGTGTTVTVSS
VL: QIVLTQSPAIMSASPGEKVTMTCSASSSVSYMYWYQQKSGTSPKRWIYDTSKLASGVPARFSGSGSGTSYSLTISSLEAEDAATYYCQQWSSDPPYTFGGGTKLEIKR
notes: chimeric
B4: 81 L3H2 (antibody, human IgG1, kappa, V domains shown)
VH: EVQLVQSGAEVKKPGASVKVSCKASGYTFTDHNMNWVKQAPGQRLEWMGVMNPKFGTINYNQKFKDKATITRDTSASTAYMELSSLRSEDTAVYYCARDDYPNYFDYWGQGTTVTVSS
VL: DIQLTQSPSFLSASPGDRVTITCSASSSVNYMYWYQQKPGSSPKSWIYRTSNLASGVPSRFSGSGSGTEYTLTISSLQPEDFATYYCQQYHDYPPTFGGGTKVEIKR
notes: h81 H2 + h81 L3
B5: 81 L2H2 (antibody, human IgG1, kappa, V domains shown)
VH: EVQLVQSGAEVKKPGASVKVSCKASGYTFTDHNMNWVKQAPGQRLEWMGVMNPKFGTINYNQKFKDKATITRDTSASTAYMELSSLRSEDTAVYYCARDDYPNYFDYWGQGTTVTVSS
VL: EIVLTQSPDFQSVTPGEKVTITCSASSSVNYMYWYQQKPDQSPKSWIYRTSNLASGVPSRFSGSGSGTDFTLTISSLEAEDAATYYCQQYHDYPPTFGGGTKVEIKR
notes: h81 H2 + h81 L2
B6: 81 L4H2 (antibody, human IgG1, kappa, V domains shown)
VH: EVQLVQSGAEVKKPGASVKVSCKASGYTFTDHNMNWVKQAPGQRLEWMGVMNPKFGTINYNQKFKDKATITRDTSASTAYMELSSLRSEDTAVYYCARDDYPNYFDYWGQGTTVTVSS
VL: DIQLTQSPSFLSASPGDRVTITCSASSSVNYMYWYQQKPGSSPKSWIYRTSNDASGVPSRFSGSGSGTEYTLTISSLQPEDFATYYCQQYHDYPPTFGGGTKVEIKR
notes: h81 H2 + h81 L4
B7: 81 L6H2 (antibody, human IgG1, kappa, V domains shown)
VH: EVQLVQSGAEVKKPGASVKVSCKASGYTFTDHNMNWVKQAPGQRLEWMGVMNPKFGTINYNQKFKDKATITRDTSASTAYMELSSLRSEDTAVYYCARDDYPNYFDYWGQGTTVTVSS
VL: DIQLTQSPSFLSASPGDRVTITCSASSSVNYMYWYQQKPGSSPKSWIYRTQNLASGVPSRFSGSGSGTEYTLTISSLQPEDFATYYCQQYHDYPPTFGGGTKVEIKR
notes: h81 H2 + h81 L6
B8: P3-C7 L2H1 (antibody, human IgG1, kappa, V domains shown)
VH: EVQLVQSGAEVKKPGASVKVSCKASGYTFTDHYIHWVRQAPGQGLEWMGVINPYNDGATYNQKFKGRVTMTVDKSTSTVYMELSSLRSEDTAVYYCARPPRAYGNYAGYWGQGTTVTVSS
VL: DVVMTQTPLSLPVTPGEPASISCRSSQSLVHSNGNTYLHWYLQKPGQSPQLLIYKVSNRFSGVPDRFSGSGSRTDFTLKISRVEAEDVGVYYCSQSTHVPYTFGGGTKVEIKR
notes: hP3-C7 H1 + L2
B9: P3-C7 CHI (antibody, human IgG1, kappa, V domains shown)
VH: EVQLQQSGPVLLKPGASVKMSCKASGYTFTDHYIHWVKLSHGKSLEWIGVINPYNDGATYNQKFKGKATLTVDKSSSTAYMELNSLTSEDSAVYYCARPPRAYGNYAGYWGQGTTLTVSS
VL: DVVMTQTPLSLPVSLGDQASISCRSSQSLVHSNGNTYLHWYLQKPGQSPKLLIYKVSNRFSGVPDRFIGSGSRTDFTLKISRVEAEDLGVYFCSQSTHVPYTFGGGTRLEIKR
notes: chimeric; also called P3-C7 CH1
B10: P3-C7 L3H1 (antibody, human IgG1, kappa, V domains shown)
VH: EVQLVQSGAEVKKPGASVKVSCKASGYTFTDHYIHWVRQAPGQGLEWMGVINPYNDGATYNQKFKGRVTMTVDKSTSTVYMELSSLRSEDTAVYYCARPPRAYGNYAGYWGQGTTVTVSS
VL: DVVMTQTPLSLPVTPGEPASISCRSSQSLVHSQGNTYLHWYLQKPGQSPQLLIYKVSNRFSGVPDRFSGSGSRTDFTLKISRVEAEDVGVYYCSQSTHVPYTFGGGTKVEIKR
notes: hP3-C7 H1 + L3
B11: P3-C7 L5H1 (antibody, human IgG1, kappa, V domains shown)
VH: EVQLVQSGAEVKKPGASVKVSCKASGYTFTDHYIHWVRQAPGQGLEWMGVINPYNDGATYNQKFKGRVTMTVDKSTSTVYMELSSLRSEDTAVYYCARPPRAYGNYAGYWGQGTTVTVSS
VL: DVVMTQTPLSLPVTPGEPASISCRSSQSLVHSTGNTYLHWYLQKPGQSPQLLIYKVSNRFSGVPDRFSGSGSRTDFTLKISRVEAEDVGVYYCSQSTHVPYTFGGGTKVEIKR
notes: hP3-C7 H1 + L5
B12: P3-C7 L1H1 (antibody, human IgG1, kappa, V domains shown)
VH: EVQLVQSGAEVKKPGASVKVSCKASGYTFTDHYIHWVRQAPGQGLEWMGVINPYNDGATYNQKFKGRVTMTVDKSTSTVYMELSSLRSEDTAVYYCARPPRAYGNYAGYWGQGTTVTVSS
VL: DIVMTQTPLSLPVTPGEPASISCRSSQSLVHSNGNTYLHWYLQKPGQSPQLLIYKVSNRFSGVPDRFSGSGSGTDFTLKISRVEAEDVGVYYCSQSTHVPYTFGGGTKVEIKR
notes: hP3-C7 H1 + L1
B13: P3-C7 L4H1 (antibody, human IgG1, kappa, V domains shown)
VH: EVQLVQSGAEVKKPGASVKVSCKASGYTFTDHYIHWVRQAPGQGLEWMGVINPYNDGATYNQKFKGRVTMTVDKSTSTVYMELSSLRSEDTAVYYCARPPRAYGNYAGYWGQGTTVTVSS
VL: DVVMTQTPLSLPVTPGEPASISCRSSQSLVHSSGNTYLHWYLQKPGQSPQLLIYKVSNRFSGVPDRFSGSGSRTDFTLKISRVEAEDVGVYYCSQSTHVPYTFGGGTKVEIKR
notes: hP3-C7 H1 + L4

This experiment deals with T1, hGUCY2C ECD-His (human, UniProt P25092 24-430).
T1 construct: also called human GUCY2C protein
As to the kind of experiment: SPR Biacore, antibody captured. From the text:
To test the affinity of the GUCY2C monoclonal antibodies of the present disclosure for GUCY2C, in this test example, the instruments Biacore 8K and Biacore T200 were used to detect the ability of the antibodies to bind to hGUCY2C-ECD-His (SEQ ID NO: 3). The specific method is as follows: The antibody was affinity-captured using a Protein A biosensor chip conjugated with an anti-human antibody, then a solution containing GUCY2C Protein flowed on the surface of the chip, and reaction signals were detected in real time with an instrument to obtain association and dissociation curves. After dissociation was completed for each cycle, the biosensor chip was washed with 10 mM glycine-hydrochloric acid (pH 1.5) for regeneration. Data fitting was performed using a 1:1 model.
On the technique in general: SPR reads the build-up and loss of mass on a sensor chip optically.
Usually Kd stands for a measure of binding affinity in units of concentration. Read a low Kd as higher affinity. Broadly, the koff is a measure of how fast the partners let go of each other. High values mean a short-lived complex, low ones a long-lived complex. As a reminder, the kon is the second-order rate constant of association. Take B1: the equilibrium dissociation constant (Kd) came out at 0.27 nM, the koff worked out at 5.9e-05 s⁻¹ and the on-rate constant (kon) stood at 216000 M⁻¹ s⁻¹.
Take B2: the affinity, expressed as Kd, was 0.46 nM; the off-rate (koff) was 9.22e-05 s⁻¹; the kon was 203000 M⁻¹ s⁻¹.
Molecule B3 registered a dissociation constant (Kd) of 20.4 nM, an off-rate (koff) of 0.000348 s⁻¹ and a kon of 17100 M⁻¹ s⁻¹.
B4 had an equilibrium dissociation constant (Kd) of 0.41 nM, an off-rate (koff) of 0.000103 s⁻¹ and an on-rate constant (kon) of 251000 M⁻¹ s⁻¹.
Molecule B5 came in with a Kd of 0.46 nM, an off-rate (koff) of 0.000127 s⁻¹ and a kon of 274000 M⁻¹ s⁻¹.
On to B6, for which binding was put at a Kd of 0.98 nM, the dissociation rate constant (koff) worked out at 0.000207 s⁻¹ and the on-rate (kon) stood at 212000 M⁻¹ s⁻¹.
On to B7, for which the dissociation constant Kd turned out to be 0.47 nM, the koff turned out to be 0.000114 s⁻¹ and the association rate constant (kon) stood at 241000 M⁻¹ s⁻¹.
As for B8, the Kd turned out to be 5.35 nM, the koff stood at 0.000166 s⁻¹ and the kon was found to be 31000 M⁻¹ s⁻¹.
Take B9: the Kd came to 6.61 nM, the koff worked out at 0.000149 s⁻¹ and the kon was 22600 M⁻¹ s⁻¹.
As to B10, the Kd turned out to be 47.5 nM, the dissociation rate constant (koff) was determined as 0.00135 s⁻¹ and the on-rate constant (kon) was 28400 M⁻¹ s⁻¹.
With B11, the affinity, expressed as Kd, was 26.7 nM; the koff is 0.000719 s⁻¹; the kon is 26900 M⁻¹ s⁻¹.
The like results for B12 were, in that order, 6.55 nM, 0.000156 s⁻¹ and 23700 M⁻¹ s⁻¹.
Molecule B13 returned a Kd of 73.4 nM, a koff of 0.00209 s⁻¹ and an on-rate (kon) of 28500 M⁻¹ s⁻¹.
